In patent US20050143472A1, “Novel treatment for pathologies associated with oxidative damage” (priority 2002, published 2005) one finds kcat and kcat/Km data, which are given here for one protein.

Substrate in this data set: NCCCNCCCCNCCCN
Put plainly: purified protein, by the assay type. To be noted: other: apparent value, air-saturated 50 mM KH2PO4/KOH buffer pH 7.6, [O2] 237 μM.

B1: mPAO (Mus musculus) (protein)
chain: MAFPGPRVLVVGSGIAGLGAAQKLCSHRAAPHLRVLEATASAGGRIRSERCFGGVVELGAHWIHGPSQDNPVFQLAAEFGLLGEKELSEENQLVDTGGHVALPSMIWSSSGTSVSLELMTEMARLFYGLIERTREFLNESETPMASVGEFLKKEISQQVASWTEDDEDTRKRKLAILNTFFNIKCCVSGTHSMDLVALAPFGEYTVLPGLDCILAGGYQGLTDRILASLPKDTVAFDKPVKTIHWNGSFQEAAFPGETFPVLVECEDGARLPAHHVIVTVPLGFSKEHQDTFFEPPLPAKKAEAIKKLGFGTNNKIFLEFEEPFWEPDCQFIQVVWEDTSPLQDTALSLQDTWFKKLIGFLVQPSFESSHVLCGFIAGLESEFMETLSDEEVLLSLTQVLRRVTGNPQLPAAKSVLSSRWHSAPYTRGSYSYVAVGSTGDDLDLMAQPLPADGTGTQLQVLFAGEATHRTFYSTTHGALLSGWREADRLIGLWDSQAEQSRPRL
A word on the kcat: it is the maximal rate divided by the concentration of active sites. A word on the kcat/Km: it is the second-order rate constant that governs catalysis at low substrate concentration. For B1, the kcat was 0.175 s⁻¹ and the kcat/Km was 247 M⁻¹ s⁻¹.
